# Source: patent US20160158369A1, “PHARMACEUTICAL COMPOSITION FOR RESPIRATORY ADMINISTRATION” (SEIKAGAKU CORPORATION, priority 2013, published 2016)
# How the values were obtained:
# [1] = test system: rat antigen-induced asthma model; assay: Rat antigen-induced asthma model, eosinophils in bronchoalveolar lavage fluid; type: in vivo; settings: for number of eosinophils in bronchoalveolar lavage fluid, % of control: average value
# Method: Intraperitoneal administration of 1 mL of aluminum hydroxide gel containing ovalbumin (1 mg/mL) was performed 3 times with one day interval. 14 Days after performing the first sensitization, intraperitoneal administration of 1 mL of aluminum hydroxide gel containing ovalbumin (1 mg/mL) was performed again followed by the second sensitization. 7 Days after the second sensitization, inhalation exposure of physiological saline (10 mg/mL) containing ovalbumin was performed by using a nebulizer five times with one day interval in order to induce asthma.
# The 0.6 mg/mL prednisolone suspension was orally administered by using a sonde for oral administration under no anesthesia to have prednisolone amount of 3 mg/kg.
# Meanwhile, the test was performed with n=6 to 12.
# 24 Hours after the fifth exposure, phosphate buffered saline (2 mL) containing 0.1% bovine serum albumin heated to 37° C. was injected to a bronchus of a rat under pentobarbital anesthesia and collected thereafter. This procedure was repeated 5 times to have bronchoalveolar lavage fluid. The bronchoalveolar lavage fluid was centrifuged for 3 minutes at 200×g and room temperature. The supernatant was discarded, and the pellet was re-suspended in phosphate buffered saline (500 μL) containing 0.1% bovine serum albumin.
# Subsequently, a smear sample of the suspension was prepared followed by Diff-Quik staining. According to cell fractionation, ratio of eosinophil in white blood cells was calculated. According to integration with the number of white blood cells in bronchoalveolar lavage fluid, the number of […] in bronchoalveolar lavage fluid was calculated. Meanwhile, the number of white blood cells in bronchoalveolar lavage fluid was measured by using a blood cell counting chamber. The results are shown in FIG. 4 and the following table.
# Dose responsiveness of the compound va in an OVA sensitized rat model was determined in the same manner as (Test example B2).
# There were three doses for determination, i.e., 0.35 mg/kg, 3.5 mg/kg, and 35 mg/kg, such that the budesonide amount for administration is 0.1 mg/kg, 1 mg/kg, or 10 mg/kg.
# [2] = Drug dissociation test: polysaccharide derivative in buffer solution, 36°C, 1 week, HPLC; type: physicochemical
# Method: In the examples relating to drug dissociation test, the drug dissociation ratio was evaluated as described below.
# Sodium dihydrogen phosphate dihydrate (780 mg (5.0 mmol)) was dissolved in 500 mL of distilled water to give a liquid A. Separately, disodium hydrogen phosphate dodecahydrate (1.79 g (5.0 mmol)) was dissolved in 500 mL of distilled water to give a liquid B. By mixing the liquid A and liquid B at ratio of 2:3, a phosphate buffer solution of pH 7.5 was prepared.
# 0.62 g (10 mmol) of boric acid and 0.75 g (10 mmol) of potassium chloride were weighed and dissolved in 500 mL of distilled water to give a liquid C. Separately, by diluting 0.1 N sodium hydroxide solution with distilled water (×10 dilution), a liquid D was prepared.
# 50 mL of the liquid C and 7 mL of the liquid D were added to a 100 mL mess flask, and according to dilution to 100 mL with distilled water, a borate buffer solution of pH 8.0 was prepared. Furthermore, 50 mL of the liquid C and 40 mL of the liquid D were added to a 100 mL mess flask, and according to mess-up to 100 mL with distilled water, a borate buffer solution of pH 9.0 was prepared.
# Each polysaccharide derivative obtained from above was dissolved in a buffer solution at each pH so as to have a concentration of 5 mg/10 mL, and heated for 1 week in an incubator at 36° C. Then, the drug dissociation ratio during the incubation was evaluated every 24 hours by liquid chromatography (HPLC).
# The evaluation was performed by measuring the ratio between the drug amount remained in a polysaccharide derivative and the dissociated drug amount according to use of a size exclusion chromatography column (manufactured by TOSOH, TSKgel α-6000, 7.8 mmI.D.×30 cm).
# Detailed conditions for the liquid chromatography are as follows.
# Analysis time: 40 minutes
# Solution for elution: acetonitrile (for HPLC):physiological saline=1:2
# Detector: UV detector (240 nm)
Compound,"Dissociation ratio (%/day) ([2]; pH 7.4, 36°C)","drug dissociation ratio ([2]; pH 7.4, 36°C, day 0) [%]","drug dissociation ratio ([2]; pH 7.4, 36°C, day 1) [%]","drug dissociation ratio ([2]; pH 7.4, 36°C, day 2) [%]","drug dissociation ratio ([2]; pH 7.4, 36°C, day 3) [%]","drug dissociation ratio ([2]; pH 7.4, 36°C, day 4) [%]","drug dissociation ratio ([2]; pH 7.4, 36°C, day 5) [%]","drug dissociation ratio ([2]; pH 7.4, 36°C, day 6) [%]","drug dissociation ratio ([2]; pH 7.4, 36°C, day 7) [%]","Dissociation ratio (%/day) ([2]; pH 8.0, 36°C)","drug dissociation ratio ([2]; pH 8.0, 36°C, day 0) [%]","drug dissociation ratio ([2]; pH 8.0, 36°C, day 1) [%]","drug dissociation ratio ([2]; pH 8.0, 36°C, day 2) [%]","drug dissociation ratio ([2]; pH 8.0, 36°C, day 3) [%]","drug dissociation ratio ([2]; pH 8.0, 36°C, day 4) [%]","drug dissociation ratio ([2]; pH 8.0, 36°C, day 5) [%]","drug dissociation ratio ([2]; pH 8.0, 36°C, day 6) [%]","drug dissociation ratio ([2]; pH 8.0, 36°C, day 7) [%]",further results
Chondroitin Sulfate Introduced with 21-β-Alanyl-Betamethasone [Compound ia],–,–,–,–,–,–,–,–,–,–,–,–,–,–,–,–,–,–,"eosinophil infiltration compared to phosphate buffered saline group (in words) ([1]; Day 7 after single intratracheal administration): significantly suppressed eosinophil infiltration; number of eosinophils in bronchoalveolar lavage fluid, % of control ([1]; single intratracheal administration 100 μL, 7 days before the evaluation time point): 56.8 % of control"
"C[C@]12C=CC(=O)C=C1CC[C@@H]1[C@@H]2[C@@H](O)C[C@@]2(C)[C@H]1CC[C@]2(O)C(=O)CO [Prednisolone, prednisolone, reference compound]",–,–,–,–,–,–,–,–,–,–,–,–,–,–,–,–,–,–,"number of eosinophils in bronchoalveolar lavage fluid, % of control ([1]; oral 3 mg/kg, five times, 30 minutes before inducing asthma, positive control): 28.0 % of control"
Chondroitin Sulfate Introduced with 11-Glycyl-Propionic Acid Fluticasone [Compound xvii],–,–,–,–,–,–,–,–,–,–,–,–,–,–,–,–,–,–,"Dissociation ratio (%/day) ([2]; pH 7.4, phosphate buffer solution/acetonitrile (1:1), 36°C): 0.4 %/day; drug dissociation ratio ([2]; pH 7.4, phosphate buffer solution/acetonitrile (1:1), 36°C, day 0): 0.0%; drug dissociation ratio ([2]; pH 7.4, phosphate buffer solution/acetonitrile (1:1), 36°C, day 1): 0.3%; drug dissociation ratio ([2]; pH 7.4, phosphate buffer solution/acetonitrile (1:1), 36°C, day 2): 0.7%; drug dissociation ratio ([2]; pH 7.4, phosphate buffer solution/acetonitrile (1:1), 36°C, day 3): 1.3%; drug dissociation ratio ([2]; pH 7.4, phosphate buffer solution/acetonitrile (1:1), 36°C, day 4): 1.9%; drug dissociation ratio ([2]; pH 7.4, phosphate buffer solution/acetonitrile (1:1), 36°C, day 5): 2.3%; drug dissociation ratio ([2]; pH 7.4, phosphate buffer solution/acetonitrile (1:1), 36°C, day 6): 2.5%; drug dissociation ratio ([2]; pH 7.4, phosphate buffer solution/acetonitrile (1:1), 36°C, day 7): 2.9%; Dissociation ratio (%/day) ([2]; pH 8.0, borate buffer solution/acetonitrile (1:1), 36°C): 3.3 %/day; drug dissociation ratio ([2]; pH 8.0, borate buffer solution/acetonitrile (1:1), 36°C, day 0): 0.0%; drug dissociation ratio ([2]; pH 8.0, borate buffer solution/acetonitrile (1:1), 36°C, day 1): 4.6%; drug dissociation ratio ([2]; pH 8.0, borate buffer solution/acetonitrile (1:1), 36°C, day 2): 10.1%; drug dissociation ratio ([2]; pH 8.0, borate buffer solution/acetonitrile (1:1), 36°C, day 3): 14.1%; drug dissociation ratio ([2]; pH 8.0, borate buffer solution/acetonitrile (1:1), 36°C, day 4): 17.8%; drug dissociation ratio ([2]; pH 8.0, borate buffer solution/acetonitrile (1:1), 36°C, day 5): 18.9%; drug dissociation ratio ([2]; pH 8.0, borate buffer solution/acetonitrile (1:1), 36°C, day 6): 20.0%; drug dissociation ratio ([2]; pH 8.0, borate buffer solution/acetonitrile (1:1), 36°C, day 7): 22.8%"
Hyaluronic Acid Introduced with 21-β-Alanyl-Budesonide (880 kDa) [Compound via],4.9,2.0,9.6,16.8,18.3,21.7,23.9,30.9,34.3,8.2,0.9,15.0,20.4,26.4,39.9,46.2,52.6,57.1,–
Hyaluronic Acid Introduced with Proxyphylline [xxiib],0.8,0.0,0.7,1.3,2.2,2.8,3.6,4.4,5.3,2.0,0.0,2.1,4.6,7.0,8.8,10.4,12.6,14.3,–
Chondroitin Sulfate Introduced with 21-β-Alanyl-Budesonide (10 kDa) [Compound vc],1.2,0.4,1.6,2.8,3.7,4.8,5.3,6.8,8.5,2.0,0.1,1.9,2.4,3.9,7.6,9.7,11.2,14.0,–
Chondroitin Sulfate Introduced with Seratrodast [Compound xxiii],0.1,0.0,0.0,0.2,0.3,0.3,0.4,0.5,0.6,0.2,0.0,0.2,0.4,0.6,0.7,0.9,1.1,1.3,–
Hyaluronic Acid Introduced with 21-β-Alanyl-Budesonide (390 kDa) [Compound vib],4.9,3.3,9.3,16.3,18.4,22.3,25.2,30.7,34.6,7.9,0.4,12.8,16.1,23.2,36.7,44.1,50.2,55.3,–
Chondroitin Sulfate Introduced with β-Alanyl-Proxyphylline [Compound xxiia],0.2,0.0,0.0,0.0,0.0,0.0,0.0,0.8,1.3,0.4,0.0,0.0,0.0,1.2,1.6,2.0,2.3,2.6,–
